In patent publication US20230357838 one finds activity (fraction deaminated) data, which are given here for one substance.

In one data set the target is APOBEC3A (UniProt P31941). The conditions noted are these: ssDNA deaminase control.
The test system of the next data set is AcDa01. As to conditions: CG 0.790, CH 0.014.
The subject of another data set is T1, AncDa04.
T1 sequence: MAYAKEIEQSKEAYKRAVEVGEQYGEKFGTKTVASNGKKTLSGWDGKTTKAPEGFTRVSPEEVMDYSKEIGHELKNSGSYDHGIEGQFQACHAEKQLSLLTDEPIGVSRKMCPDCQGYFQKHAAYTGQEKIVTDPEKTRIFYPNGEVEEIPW

Data set [1] has as its system AshDa01 (Amycolatopsis sp.). The conditions noted are these: CG 0.699, CH 0.193.
Data set [2] concerns T2, BaDa01 (Bacillus aerophilus).
T2 sequence: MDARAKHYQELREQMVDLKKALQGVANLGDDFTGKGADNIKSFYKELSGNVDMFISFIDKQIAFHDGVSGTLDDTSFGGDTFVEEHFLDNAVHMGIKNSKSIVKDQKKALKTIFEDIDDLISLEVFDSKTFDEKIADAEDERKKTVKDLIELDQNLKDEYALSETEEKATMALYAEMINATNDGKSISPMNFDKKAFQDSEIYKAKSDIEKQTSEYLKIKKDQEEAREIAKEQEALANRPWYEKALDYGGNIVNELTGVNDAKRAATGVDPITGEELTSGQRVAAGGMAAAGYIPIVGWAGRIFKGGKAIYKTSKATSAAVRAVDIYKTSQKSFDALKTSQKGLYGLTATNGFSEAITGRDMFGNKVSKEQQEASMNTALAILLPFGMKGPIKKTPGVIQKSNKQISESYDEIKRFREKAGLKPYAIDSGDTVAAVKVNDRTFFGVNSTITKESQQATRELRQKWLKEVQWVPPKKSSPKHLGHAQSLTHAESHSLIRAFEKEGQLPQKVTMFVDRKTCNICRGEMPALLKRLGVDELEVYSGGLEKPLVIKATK

Another data set has as its system CbDa01 (unidentified). The conditions noted are these: CG 0.760, CH 0.022.
For data set [3], the system named is T3, CrDa01 (Clostridium roseum).
T3 sequence: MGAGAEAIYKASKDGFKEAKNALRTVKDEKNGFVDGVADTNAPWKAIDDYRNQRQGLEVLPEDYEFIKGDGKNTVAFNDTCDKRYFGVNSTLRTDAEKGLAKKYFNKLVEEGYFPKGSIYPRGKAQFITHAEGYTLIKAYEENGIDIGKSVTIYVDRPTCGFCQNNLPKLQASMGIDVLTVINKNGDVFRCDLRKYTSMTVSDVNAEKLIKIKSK

Data set [4] relates to CseDa01 (Candidatus Scybalomonas e).
Data set [5] relates to EcDa01 (Escherichia coli).
A further data set concerns T4, MGYPDa16 (unidentified).
T4 sequence: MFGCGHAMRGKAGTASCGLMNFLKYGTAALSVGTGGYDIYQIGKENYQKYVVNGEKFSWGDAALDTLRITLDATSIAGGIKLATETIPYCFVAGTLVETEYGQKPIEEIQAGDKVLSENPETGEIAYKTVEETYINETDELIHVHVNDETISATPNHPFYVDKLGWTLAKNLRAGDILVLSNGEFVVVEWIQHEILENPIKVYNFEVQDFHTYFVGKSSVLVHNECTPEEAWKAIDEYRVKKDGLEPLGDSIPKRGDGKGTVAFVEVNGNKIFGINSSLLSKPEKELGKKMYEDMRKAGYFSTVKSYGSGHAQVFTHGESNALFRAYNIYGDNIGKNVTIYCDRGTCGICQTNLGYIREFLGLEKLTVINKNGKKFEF

The next data set relates to T5, MGYPDa20 (unidentified).
T5 sequence: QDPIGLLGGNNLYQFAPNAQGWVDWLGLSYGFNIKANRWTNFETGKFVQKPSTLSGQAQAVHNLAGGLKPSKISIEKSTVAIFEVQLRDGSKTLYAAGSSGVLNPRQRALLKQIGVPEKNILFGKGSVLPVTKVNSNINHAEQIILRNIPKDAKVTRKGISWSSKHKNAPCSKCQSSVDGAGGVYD
As to conditions: 5mC 0.049, 5hmC 0.021.

The next data set has as its system T6, MGYPDa23 (unidentified).
T6 sequence: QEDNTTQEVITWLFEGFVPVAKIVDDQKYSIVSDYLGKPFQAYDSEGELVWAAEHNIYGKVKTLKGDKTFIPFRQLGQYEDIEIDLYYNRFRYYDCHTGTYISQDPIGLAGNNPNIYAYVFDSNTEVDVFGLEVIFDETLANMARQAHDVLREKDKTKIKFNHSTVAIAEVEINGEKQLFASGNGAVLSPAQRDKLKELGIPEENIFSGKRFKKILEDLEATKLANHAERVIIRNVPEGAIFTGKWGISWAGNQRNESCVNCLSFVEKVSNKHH

For the next data set, the system named is MmgDa02. As to conditions: CG 0.446, CH 0.002.
Data set [6] deals with T7, RaDa01 (Ruminococcus sp.).
T7 sequence: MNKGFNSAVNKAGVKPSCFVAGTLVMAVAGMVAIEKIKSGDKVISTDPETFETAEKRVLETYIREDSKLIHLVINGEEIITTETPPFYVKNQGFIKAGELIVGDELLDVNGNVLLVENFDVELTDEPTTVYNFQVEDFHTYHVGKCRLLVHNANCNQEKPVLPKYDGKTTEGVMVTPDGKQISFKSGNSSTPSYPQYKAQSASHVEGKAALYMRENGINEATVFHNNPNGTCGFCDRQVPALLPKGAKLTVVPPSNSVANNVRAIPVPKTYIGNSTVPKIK

The subject of data set [7] is SaDa02 (Streptomyces sp.).

Sequence of APOBEC3A (P31941 other isoform, or with tags, fused parts or gaps): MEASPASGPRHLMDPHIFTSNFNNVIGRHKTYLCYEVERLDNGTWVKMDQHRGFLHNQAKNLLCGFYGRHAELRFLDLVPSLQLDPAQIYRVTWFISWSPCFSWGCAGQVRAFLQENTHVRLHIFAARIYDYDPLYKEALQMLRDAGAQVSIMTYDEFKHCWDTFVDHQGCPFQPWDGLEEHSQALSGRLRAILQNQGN

“unmodified dsDNA (E. coli C2566 genomic)”: the activity (fraction deaminated) with APOBEC3A stood at 0.331; in the data set on AcDa01, 0.243; in the data set with AncDa04, 0.992; in data set [1], 0.342; in data set [2], 0.612; in the data set on CbDa01 (unidentified), 0.24. Also, the activity (fraction deaminated) in data set [3] was 0.811; in data set [4] it was 0.998; in [5] it was 0.566; with MGYPDa16 (unidentified), 0.78; in the data set with MGYPDa20 (unidentified) it was 0.857; in the data set with MGYPDa23 (unidentified), 0.935. Besides, the activity (fraction deaminated) was found to be 0.133 in the data set with MmgDa02, 0.465 in data set [6], 0.607 in [7] and 0.641 in the data set on d22_Cd4_PeDa01.
